From a protein production outcome set (Wang et al. 2014)

Assay: label from the status in PepcDB records

| Sequence | protein production |
| --- | --- |
| AIANSLVRRSAQQLSLWRTYCIKHNASEAASPGRNAGRPNYEEFIGRHQRQAQCSIVVQVSSEKSYEELYNYCSSFGSIMGAHHYCVRQDETLHYILLEYATSDEAAAAIGAGVTNGELSGVPVRSPFLWFRAAGGGRRSPKLVANTAPALLSLDGTRQVDQRHLLGLLRGAADIEEQVQQLYEHTRLNELGIRMRFLAALQVQQAIAGMFPAAQAQPFGSSVNGFGRMGCDLDLILRFDSDMGAKIPLEAAVPSRLVYHTKENLSNGRSQTQRHMECFGDMLHLFLPGVCHVRRILQARVPIIKYHHEHLDLEVDLSMSNLTGFYMSELLYMFGEMDPRVRPLTFTIRRWAQTCGLTNPSPGRWISNFSLTCLVMFFLQQLRQPILPTIGALAKAAEPGDSRVTEDGINCTFTRNVDRLGFRSRNQSSLSELLLQFFEFYSQFDFHNRAISLNEGKPLSKPDHSAMYIVNPLEQLLNVSKNVSLEECERLRIEVRNAAWVLESEVENASVPEGDGQELSCGLLNLFKHPEKAVIRPNMFFKPRMVEVSDLFEQKEAGATSSSTPPTPAITYKSASVRQQVQSIKAATRSELKQLRGSGSSVPTSSPNNRRRS | failed |
| MWLYYLQVVMDMRVYVEGYGCVLNTADTEIIKNSLKKHGFEVVNNLEEADIAIINTCVVRLETENRMIYRINELKNLGKEVVVAGCLPKALKNKVKGFLHIYPREAHKAGEILKNYVEKHYRMPYIEEDINKTLYKKLDYLKPSLITPLPICEGCIGNCSYCIVKIARGGLISYPREKIVNKAKELINKGAKCLLITAQDTACYGFDIGDNLANLLNELTQIKGEFIMRVGMMHAKNAELILDELIEVYQNEKVGKFLHLPLQSGDDEILKRMKRGYTVDEFKDIVNEFRRKIKNLCFTTDIIVGFPGETEEQFQNTLEVLRELKPDYIHGAKYSQRKGTEAAKMKQIDTKIRKRRSEILDKLRRELSYLNNKKYIGKAMKVLVLDEGKGYTDNFKVVKFEGGEVGEFRKVKITDAKTFGLKGELILLEHHHHHH | not failed |
| MIFSFIFKVAVISSSGALAPGPLTAATAAIGVKRGWKGGFWVSVGHAAVELPLVILIATGVAVVLTHSSALSLLSVAGGVMLLSFAFLTAKSAFSKTEEKAESSANPFSTGVALSALNPFFIAWWAGVGAVLITEAISLWGYAGIAVLYLSHVWLDFAWLILLAHLTSMAIFSAKAYRALLVALAALVFLFGVDFLHYGLFSKHLLPI | failed |
| MDSKEGKLTVIGEFDEMQILKKLKKRWESAKMATFGPFDPKKEAETAAAAEKKKKEENEREREREREEALYRSQSHHDTPVCPMHHHTTIVCDHDHGCIIS | failed |
| MKSLGRHLVAEFYECDREVLDNVQLIEQEMKQAAYESGATIVTSTFHRFLPYGVSGVVVISESHLTIHTWPEYGYAAIDLFTCGEDVDPWKAFEHLKKALKAKRVHVVEHERGRYDEIGIPEDSPHKAAV | not failed |
| MEICSMSQPSSDQSVASFESKSLNILGEHIPVSELAGCEECDTVYRKVKLAAGERAYCVCCGAELYRKTRSLTSLLALVVTALIIFAIANSFPIVKVELQGNTSQTTLLGAAWTMFQIDRALVGILILFTTFIVPLLDLLLLTYILSSVGIFKQRPPYLRLALRILFLFRVWGMVEVFLIGVLVTLVKLVGMVVVIPGVALWAFAILSLLLVYIASVKIKDIWDEVDRCVP | failed |
| MQDEYYMARALKLAQRGRFTTHPNPNVGCVIVKDGEIVGEGYHQRAGEPHAEVHALRMAGEKAKGATAYVTLEPCSHHGRTPPCCDALIAAGVARVVASMQDPNPQVAGRGLYRLQQAGIDVSHGLMMSEAEQLNKGFLKRMRTGFPYIQLKLGASLDGRTAMASGESQWITSPQARRDVQLLRAQSHAILTSSATVLADDPALTVRWSELDEQTQALYPQQNLRQPIRIVIDSQNRVTPVHRIVQQPGETWFARTQEDSREWPETVRTLLIPEHKGHLDLVVLMMQLGKQQINSIWVEAGPTLAGALLQAGLVDELIVYIAPKLLGSDARGLCTLPGLEKLADAPQFKFKEIRHVGPDVCLHLVGA | not failed |
| MTEQHSHQFERGTDGPKVILVGVDGSDSSLHAAAYAAGLARRQHALLAVVYVQPVMAAGAALGVPVADTTDEIAADLVQYIRDATERVKDIFEVRWEFHTFRGDPYNGLVTAADELKADAVVVGASEQAGHRIVGSVAVRLVKAGRWPVTVVP | not failed |
| MGTGEKTLKSFQLHRKQSVKVKDVPKGCLAIKVGSQGEEQQRFIVPVLYFNHPLFMQLLKEAEDEYGFDQKGTITIPCHVEEFRYVQALIDGERSVYNGNNHHHRHGGRDQYHHLVGCFRA | failed |
| MTDYGEEQRNELEALESIYPDSFTVLSENPPSFTITVTSEAGENDETVQTTLKFTYSEKYPDEAPLYEIFSQENLEDNDVSDILKLLALQAEENLGMVMIFTLVTAVQEKLNEIVDQIKTR | not failed |
| MVDQNPEEYYSKGILQYDDGNYTESIDLFEKAIQLNPEESKYWLMKGKALYNLERYEEAVDCYNYVINVIEDEYNKDVWAAKADALRHIEGKEVEAEIAEARAKLEHHHHHH | not failed |
| PSEAPERVMVPIANPKTVESLLDLAFIVRGQSSEPLYPLTVAQGTNGDAESEVAKAEKVLAHAVTYAAGASVPIQMLTRLDPNIASGIIRAIEETRITTLVIGWNGKRSTPQLIFGGILDQLLERTEEMVLVSK | failed |
| MSGKRVAKNTLFQIVKMLITTVVNLYMVRVLLHQLGVEGYGIFNLIAGVLALMLFLNGAMTTSSQRYLSFYSTQQLEKRTSVFATTKSLHIVVAMIIFLLLFSLQTFIFEDLINIPVSVVSSAQSLYQIMAVGVLASVVTVPFNAQINANEDLGIDAVFSVFESLFKLIAAFLIVFFENQLVSLGALFVLVSWTMLIVKVVYCRIKYEECNLLNFKLDIALFKEMIGFTSWNSFGAICGVARVQGLAVVLNHFFGVYINAVYAIAVQVNGKLKEFSINIMKAFNPRIVKAESKDNREEMLHLSMLASRFSLLLYSVIALPIFFETDFMLSIWLGDYPDGVLTFIKLFLVLAFVNLTTVGLQTAIQATGDVKAYQSTIGSVLLLTVPLAYIFLSLGYPPYTVIVVSIFMEVVSCGMRLAFLKLKAGLSIKKYILFVINKALQVLIPTIVVLFSLTISFEQSILRFISTTLVSFGMISFLTYWLVLGVEEKKMIRLKV | not failed |
| MRTIIALETHDVRFPTSRELDGSDAMNPDPDYSAAYVVLRTDGAEDLAGYGLVFTIGRGNDVQTAAVAALAEHVVGLSVDKVIADLGAFARRLTNDSQLRWLGPEKGVMHMAIGAVINAAWDLAARAANKPLWRFIAELTPEQLVDTIDFRYLSDALTRDEALAILRDAQPQRAARTATLIEQGYPAYTTSPGWLGYSDEKLVRLAKEAVADGFRTIKLKVGANVQDDIRRCRLARAAIGPDIAMAVDANQRWDVGPAIDWMRQLAEFDIAWIEEPTSPDDVLGHAAIRQGITPVPVSTGEHTQNRVVFKQLLQAGAVDLIQIDAARVGGVNENLAILLLAAKFGVRVFPHAGGVGLCELVQHLAMADFVAITGKMEDRAIEFVDHLHQHFLDPVRIQHGRYLAPEVPGFSAEMHPASIAEFSYPDGRFWVEDLAA | not failed |
| MYSMLKRVITEKDLLRQIRLLEQLLNVPQLTAKRLAAQIQTTERTVFSDLQYIRSQLPADWSIETDSSGIRLRNQGNAQTNELWSLFLPQSISIQLLKELLFTKELVTTSFLSTSGVSYETLKRHIKKMNQALRDFHLTIQLTTMTIQLIGAESNIRIFYHRLLVPFTHNNYFFDDYSIHEEHYFQFLKQVYSSELTVETEEIFGACWFFINTIRNKANCRVSQFSFDSKDVLFQLYQPSLAKLYASEGIYLQGEESFFAFFCFLESWNYDNVYGETLASALHTHYSQLRKSLQQFVTNLSTEEARPDLIQTNLLDNLLLLFIKYTESPTLSEQFQLEYQELMTEQAAEDLALSKSNQELLEILSRYTTIEEPTYFLSLASLLEKQAIYSIQAQTMTAYFLFQGEPAWKAFLQQELAAYLGTRVKLQAIEYVELSQLTLNEADIIISNFPLDHLDLPVFYLSLIPTKNELRRLAELTLHSYF | not failed |
| MTDPLQRPRRKDPLRRTTLGHVPPRLRSRAAMEMATHAAQGRFVLQTCESCDRATYPPRDRCPNCWGELVWREQDAGGQVAAETTIRHSTDTYFRNHMPWRIGTVRLDAGPTAIVHLHGEAGVGDRVNMVLKLDRGGNPALFAMPRGDVPNMQDDPQFRSFTADPKHRRVLVTDGRTDTGQAIARALLDAGAAKVFVGDCAPLMRFAGKQQLAALDGAELVPLDVTDTHSVGNLAAQLGGRIDIVINTAGQVREGGVAFGAKLSDLQAGLDTGVVGLMRLAQAFGPALGARSDDGVNSAAAFLDVVPVSGLSGQSGYSGTAASAAARLSLLSGFRGEMQKAGIRVMSVLTGPVDDAWHQRLPQPKTAPSHLARTVVAALRDGQEISCAGDVAKDLFARWRADPLLTMREENR | failed |
| MNIAVQTLRALAETIVTPSYLLTIIVIMIMFYMKNRRISFMQRMIIGQNIESPFELTLSQITLSIIAGALGSVILSYLGVVFKDNSAIVLLFLISVILMFAGSRFLCFSYSGSILGIISIVIQFLSVNKIADVSSIKFLEIDVVMIMSLVGVLHIVEGIIVMIDGKSGAIPVFTNREDKIIGGFAFKRYWVLPITLLFLLNNADLNGTVNVATPDSWPIIRTAFTVIGKSAVISFMMFYGIIGYKSVTFTKSKRKKTFMSGMAIALYGAVLLGLSQVLKHNLEQQIILCLLAPLLHETMLRLEAYSEVKGKPKFVSGEDGVMVLDVAPNSQAYEMGIKSGDLLLEINDTKIFSEEDITRSIQNMSKYMWFKIKDVQGKLNEISYDKFDRNKKLGAIFVPKGMPKESKIVKFEHKSFDDILDNVNKEDENKKDQK | failed |
| MCLGMAGEHMAPNSKHLSLHMPVDFIDALAQAESIDEILKVVATWFMEMFVADRASITFPVNDSHLRVVALEGNRVIDVDAPVPIHGTMVGRVFSRGQAEICDDLAASTDLDCLILASRGLGSCLDAPLRSGRDCYGTINVGRRDRNGFTLADMRKIEALAMWIATLIRVHRQVERLTHLSRTDPLTQIMNRRAFTESFQTRRLEGERRRAEVGTGLGFAVVDIDHFKQINDTYGHDVGDVVLAFVGKMMNEFFRESDCVARFGGEEFCVLMQDVDEGGMQRLLERFRVALGDCVVTHSAGTVSITASIGAVLVKTSVAGIDRAFRSADLALYKAKADGRNRVRIAPSAEQSHAGNPANRLCYPG | failed |
| MIENEFGEVSVDDQLIGDRATQIKTLTNGCICCSRSNELEDALLDLLDNLDKGNIQFDRLVIECTGMADPGPIIQTFFSHEVLCQRYLLDGVIALVDAVHADEQMNQFTIAQSQVGYADRILLTKTDVAGEAEKLHERLARINARAPVYTVTHGDIDLGLLFNTNGFMLEENVVSTKPRFHFIADKQNDISSIVVELDYPVDISEVSRVMENLLLESADKLLRYKGMLWIDGEPNRLLFQGVQRLYSADWDRPWGDEKPHSTMVFIGIQLPEEEIRAAFAGLRK | not failed |
| MTNPETASDNSRDLVLVRRFDAPCDLVFRAWTDPKALAQWCGPHGFKAVGDRLEAWPGGRHRACLIAPDGEEHWVGGKYLEVEPPHRLVFTHAWETGAGETSPETIVTITLRESDGGTEMTFRQSGFASVSSLEGHESGWSQSFERLSSFLGTGSEGLNHA | failed |
| VDRDYLQSEYGVLKAGQCYKVVRSFRDYRNINYERGDVMRFLGSNFVPYESGLSLFFDKNGSERQIMLCVRPEFQMEIAHHLDSYFCKLDDN | not failed |
| MKPSKYSVKAQGHGSSYMPMEVTLSKDKIEDINVDASGETRGVADEVFNRLPKLIVDNQTLNIDAVSGATISSHGVIDGVAQTINEAGGNSEEWKRRAKPRKVLLKKTKNMILMLEHHHHHH | not failed |
| MNKEVDLSVSCLGKVKELKYDVIILPWGATEPHNLHLPYLTDCILPHDIAVEAAELALSRSGVRCMVMPPVPFGAHNPGQRELPFCIHTRYATQQAILEDIVSSLHVQGFRKLLILSGHGGNNFKGMIRDLAFEYPDFLIAAANWFEVVSPKGYFEAEIDDHAGESETSVMMHYHPELVNLAEAGDGESKPFAIASLNEKVAWVPRHWDKATVDSGVGNPKKATAEKGERYVKPIVEKLAGLFEEMAQHDLYE | not failed |
